# Results as given in patent publication US12099068B2, “Biomarkers for graft-versus-host disease” (Incyte Corporation, priority 2018, dated 2024).
# B1: CES2 (protein, UniProt O00748 27-559, looked up)
# Cocaine esterase: QDSASPIRTTHTGQVLGSLVHVKGANAGVQTFLGIPFAKPPLGPLRFAPPEPPESWSGVRDGTTHPAMCLQDLTAVESEFLSQFNMTFPSDSMSEDCLYLSIYTPAHSHEGSNLPVMVWIHGGALVFGMASLYDGSMLAALENVVVVIIQYRLGVLGFFSTGDKHATGNWGYLDQVAALRWVQQNIAHFGGNPDRVTIFGESAGGTSVSSLVVSPISQGLFHGAIMESGVALLPGLIASSADVISTVVANLSACDQVDSEALVGCLRGKSKEEILAINKPFKMIPGVVDGVFLPRHPQELLASADFQPVPSIVGVNNNEFGWLIPKVMRIYDTQKEMDREASQAALQKMLTLLMLPPTFGDLLREEYIGDNGDPQTLQAQFQEMMADSMFVIPALQVAHFQCSRAPVYFYEFQHQPSWLKNIRPPHMKADHGDELPFVFRSFFGGNYIKFTEEEEQLSRKMMKYWANFARNGNPNGEGLPHWPLFDQEEQYLQLNLQPAVGRALKAHRLQFWKKALPQKIQELEEPEERHTEL
# B2: SIRT2 (protein, UniProt Q8IXJ6 2-389, looked up)
# NAD-dependent protein …: AEPDPSHPLETQAGKVQEAQDSDSDSEGGAAGGEADMDFLRNLFSQTLSLGSQKERLLDELTLEGVARYMQSERCRRVICLVGAGISTSAGIPDFRSPSTGLYDNLEKYHLPYPEAIFEISYFKKHPEPFFALAKELYPGQFKPTICHYFMRLLKDKGLLLRCYTQNIDTLERIAGLEQEDLVEAHGTFYTSHCVSASCRHEYPLSWMKEKIFSEVTPKCEDCQSLVKPDIVFFGESLPARFFSCMQSDFLKVDLLLVMGTSLQVQPFASLISKAPLSTPRLLINKEKAGQSDPFLGMIMGLGGGMDFDSKKAYRDVAWLGECDQGCLALAELLGWKKELEDLVRREHASIDAQSGAGVPNPSTSASPKKSPPPAKDEARTTEREKPQ
# B3: HO-1 (protein, UniProt P09601 1-288, looked up)
# Heme oxygenase 1: MERPQPDSMPQDLSEALKEATKEVHTQAENAEFMRNFQKGQVTRDGFKLVMASLYHIYVALEEEIERNKESPVFAPVYFPEELHRKAALEQDLAFWYGPRWQEVIPYTPAMQRYVKRLHEVGRTEPELLVAHAYTRYLGDLSGGQVLKKIAQKALDLPSSGEGLAFFTFPNIASATKFKQLYRSRMNSLEMTPAVRQRVIEEAKTAFLLNIQLFEELQELLTHDTKDQSPSRAPGLRQRASNKVQDSAPVETPRGKPPLNTRSQAPLLRWVLTLSFLVATVAVGLYAM
# B4: CNDP1 (protein, UniProt Q96KN2 27-507, looked up)
# Beta-Ala-His dipeptidase: SPSPPPALLEKVFQYIDLHQDEFVQTLKEWVAIESDSVQPVPRFRQELFRMMAVAADTLQRLGARVASVDMGPQQLPDGQSLPIPPVILAELGSDPTKGTVCFYGHLDVQPADRGDGWLTDPYVLTEVDGKLYGRGATDNKGPVLAWINAVSAFRALEQDLPVNIKFIIEGMEEAGSVALEELVEKEKDRFFSGVDYIVISDNLWISQRKPAITYGTRGNSYFMVEVKCRDQDFHSGTFGGILHEPMADLVALLGSLVDSSGHILVPGIYDEVVPLTEEEINTYKAIHLDLEEYRNSSRVEKFLFDTKEEILMHLWRYPSLSIHGIEGAFDEPGTKTVIPGRVIGKFSIRLVPHMNVSAVEKQVTRHLEDVFSKRNSSNKMVVSMTLGLHPWIANIDDTQYLAAKRAIRTVFGTEPDMIRDGSTIPIAKMFQEIVHKSVVLIPLGAVDDGEHSQNEKINRWNYIEGTKLFAAFFLEMAQLH
# B5: PTPRJ (protein, UniProt Q12913 36-1337, looked up)
# Receptor-type …: AGGTPSPIPDPSVATVATGENGITQISSTAESFHKQNGTGTPQVETNTSEDGESSGANDSLRTPEQGSNGTDGASQKTPSSTGPSPVFDIKAVSISPTNVILTWKSNDTAASEYKYVVKHKMENEKTITVVHQPWCNITGLRPATSYVFSITPGIGNETWGDPRVIKVITEPIPVSDLRVALTGVRKAALSWSNGNGTASCRVLLESIGSHEELTQDSRLQVNISGLKPGVQYNINPYLLQSNKTKGDPLGTEGGLDASNTERSRAGSPTAPVHDESLVGPVDPSSGQQSRDTEVLLVGLEPGTRYNATVYSQAANGTEGQPQAIEFRTNAIQVFDVTAVNISATSLTLIWKVSDNESSSNYTYKIHVAGETDSSNLNVSEPRAVIPGLRSSTFYNITVCPVLGDIEGTPGFLQVHTPPVPVSDFRVTVVSTTEIGLAWSSHDAESFQMHITQEGAGNSRVEITTNQSIIIGGLFPGTKYCFEIVPKGPNGTEGASRTVCNRTVPSAVFDIHVVYVTTTEMWLDWKSPDGASEYVYHLVIESKHGSNHTSTYDKAITLQGLIPGTLYNITISPEVDHVWGDPNSTAQYTRPSNVSNIDVSTNTTAATLSWQNFDDASPTYSYCLLIEKAGNSSNATQVVTDIGITDATVTELIPGSSYTVEIFAQVGDGIKSLEPGRKSFCTDPASMASFDCEVVPKEPALVLKWTCPPGANAGFELEVSSGAWNNATHLESCSSENGTEYRTEVTYLNFSTSYNISITTVSCGKMAAPTRNTCTTGITDPPPPDGSPNITSVSHNSVKVKFSGFEASHGPIKAYAVILTTGEAGHPSADVLKYTYEDFKKGASDTYVTYLIRTEEKGRSQSLSEVLKYEIDVGNESTTLGYYNGKLEPLGSYRACVAGFTNITFHPQNKGLIDGAESYVSFSRYSDAVSLPQDPGVICGAVFGCIFGALVIVTVGGFIFWRKKRKDAKNNEVSFSQIKPKKSKLIRVENFEAYFKKQQADSNCGFAEEYEDLKLVGISQPKYAAELAENRGKNRYNNVLPYDISRVKLSVQTHSTDDYINANYMPGYHSKKDFIATQGPLPNTLKDFWRMVWEKNVYAIIMLTKCVEQGRTKCEEYWPSKQAQDYGDITVAMTSEIVLPEWTIRDFTVKNIQTSESHPLRQFHFTSWPDHGVPDTTDLLINFRYLVRDYMKQSPPESPILVHCSAGVGRTGTFIAIDRLIYQIENENTVDVYGIVYDLRMHRPLMVQTEDQYVFLNQCVLDIVRSQKDSKVDLIYQNTTAMTIYENLAPVTTFGKTNGYIA
# B6: SIRPB1 (protein, UniProt O00241 30-398, looked up)
# Signal-regulatory protein …: EDELQVIQPEKSVSVAAGESATLRCAMTSLIPVGPIMWFRGAGAGRELIYNQKEGHFPRVTTVSELTKRNNLDFSISISNITPADAGTYYCVKFRKGSPDDVEFKSGAGTELSVRAKPSAPVVSGPAVRATPEHTVSFTCESHGFSPRDITLKWFKNGNELSDFQTNVDPAGDSVSYSIHSTARVVLTRGDVHSQVICEIAHITLQGDPLRGTANLSEAIRVPPTLEVTQQPMRAENQANVTCQVSNFYPRGLQLTWLENGNVSRTETASTLIENKDGTYNWMSWLLVNTCAHRDDVVLTCQVEHDGQQAVSKSYALEISAHQKEHGSDITHEAALAPTAPLLVALLLGPKLLLVVGVSAIYICWKQKA
# B7: CX3CL1 (protein, UniProt P78423 25-397, looked up)
# Fractalkine: QHHGVTKCNITCSKMTSKIPVALLIHYQQNQASCGKRAIILETRQHRLFCADPKEQWVKDAMQHLDRQAAALTRNGGTFEKQIGEVKPRTTPAAGGMDESVVLEPEATGESSSLEPTPSSQEAQRALGTSPELPTGVTGSSGTRLPPTPKAQDGGPVGTELFRVPPVSTAATWQSSAPHQPGPSLWAEAKTSEAPSTQDPSTQASTASSPAPEENAPSEGQRVWGQGQSPRPENSLEREEMGPVPAHTDAFQDWGPGSMAHVSVVPVSSEGTPSREPVASGSWTPKAEEPIHATMDPQRLGVLITPVPDAQAATRRQAVGLLAFLGLLFCLGVAMFTYQSLQGCPRKMAGEMAEGLRYIPRSCGSNSYVLVPV
# B8: LAT (protein, UniProt O43561 1-262, looked up)
# Linker for activation of …: MEEAILVPCVLGLLLLPILAMLMALCVHCHRLPGSYDSTSSDSLYPRGIQFKRPHTVAPWPPAYPPVTSYPPLSQPDLLPIPRSPQPLGGSHRTPSSRRDSDGANSVASYENEGASGIRGAQAGWGVWGPSWTRLTPVSLPPEPACEDADEDEDDYHNPGYLVVLPDSTPATSTAAPSAPALSTPGIRDSAFSMESIDDYVNVPESGESAEASLDGSREYVNVSQELHPGAAKTEPAALSSQEAEEVEEEGAPDYENLQELN
# Test system: plasma proteins
# Test: Plasma proteins modulated between baseline and day 28 in responders (CR, VGPR, PR; n = 19), Example 6 (Table 13)
# Assay type: in vivo, human
# Conditions: plasma protein (OLINK NPX); responders (CR, VGPR, PR; n = 19); itacitinib 200 mg or 300 mg QD with corticosteroids; day 28 vs baseline
# Method in brief: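 Plasma at baseline/screening and day 28 profiled for >1000 proteins by OLINK proximity extension assay, reported as NPX (log2). Steroid-naive and steroid-refractory patients pooled. Paired and unpaired t tests, ANOVA and Pearson correlation applied; significance at P<0.05.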
Molecule,"Fold Change, Increased Expression from Baseline to Day 28","Fold Change, Decreased Expression from Baseline to Day 28"
B1,1.4212,
B2,,−1.6014
B3,1.3293,
B4,1.3856,
B5,,−1.7421
B6,,−1.3991
B7,1.5454,
B8,,−2.049
